This note sets out measurements from paper PMC8647145, “Foxd3 controls heterochromatin‐mediated repression of repeat elements and 2‐cell state transcription”.

Series [1] deals with T1, GST-FOXD3 (mouse, UniProt Q61060 1-465).
T1 sequence: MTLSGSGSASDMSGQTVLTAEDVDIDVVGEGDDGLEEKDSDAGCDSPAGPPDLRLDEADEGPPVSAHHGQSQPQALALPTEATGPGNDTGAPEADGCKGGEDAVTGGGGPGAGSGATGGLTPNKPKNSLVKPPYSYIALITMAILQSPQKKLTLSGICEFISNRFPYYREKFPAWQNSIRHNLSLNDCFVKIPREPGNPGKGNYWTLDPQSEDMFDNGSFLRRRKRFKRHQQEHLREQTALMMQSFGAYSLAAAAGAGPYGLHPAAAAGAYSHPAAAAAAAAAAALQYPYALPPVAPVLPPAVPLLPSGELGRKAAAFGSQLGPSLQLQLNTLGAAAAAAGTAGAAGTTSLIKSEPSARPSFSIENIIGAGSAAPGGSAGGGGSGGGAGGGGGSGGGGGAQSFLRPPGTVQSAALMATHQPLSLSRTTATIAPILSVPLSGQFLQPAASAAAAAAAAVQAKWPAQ
Briefly: EMSA; EMSA: 50 nM DNA, 20 mM Tris-HCl pH 8.0, 100 mM KCl, 3 mM MgCl2, 1 mM EDTA, 5% glycerol, 0.05% NP-40, 2 mM DTT, 50 ng/ml yeast tRNA, 2.5 ng/ml BSA, 4 C, 1 h. Conditions: protein: recombinant; tags: N-terminal GST (pGEX-6P1); label: 5'-Cy5; blunt. In general terms: A gel shift assay detects complexes by their altered migration in electrophoresis.

Series [2] concerns the target T1, GST-FOXD3. Briefly: EMSA; up to 2.5 uM protein; EMSA: 50 nM DNA, 20 mM Tris-HCl pH 8.0, 100 mM KCl, 3 mM MgCl2, 1 mM EDTA, 5% glycerol, 0.05% NP-40, 2 mM DTT, 50 ng/ml yeast tRNA, 2.5 ng/ml BSA, 4 C, 1 h. Conditions: protein: recombinant; tags: N-terminal GST (pGEX-6P1); label: 5'-Cy5; blunt.

B1: MERVL-LTR (dsDNA)
DNA 1: CAGCTGTGTTCTAAGTGGTAAACAAATAATCTGCG
DNA 2: CGCAGATTATTTGTTTACCACTTAGAACACAGCTG
B1: in the series with GST-FOXD3 [1], the binding result was “binds”.

B2: MERVL-LTR_MUT (dsDNA)
DNA 1: CAGCTGTGTTCTAAGTGGTACACGCCTAATCTGCG
DNA 2: CGCAGATTAGGCGTGTACCACTTAGAACACAGCTG
Consider B2, for which the binding result in the series with GST-FOXD3 [2] is given as “no binding”.

B3: MSR (dsDNA)
DNA 1: CTGAAAATCATGGAAAATGAGAAACATCCACTTGA
DNA 2: TCAAGTGGATGTTTCTCATTTTCCATGATTTTCAG
With B3, in the series with GST-FOXD3 [1], the binding result is given as “binds”.

B4: Sox15 (dsDNA)
DNA 1: CAGAGGCTACTCTGAAACAAATAAAGAGATATAAA
DNA 2: TTTATATCTCTTTATTTGTTTCAGAGTAGCCTCTG
With B4, the binding result with GST-FOXD3 [1] is “binds”.

B5: MSR_MUT (dsDNA)
DNA 1: CTGAAAATCATGGAAAATGCGTGACGGCGACTTGA
DNA 2: TCAAGTCGCCGTCACGCATTTTCCATGATTTTCAG
For the molecule B5, the binding result with GST-FOXD3 [2] was “no binding”.

B6: MERVL-int (dsDNA)
DNA 1: CCATCTTTTGATAAACACCTCAGCCAACCATTCAA
DNA 2: TTGAATGGTTGGCTGAGGTGTTTATCAAAAGATGG
Take B6: the binding result with GST-FOXD3 [1] is recorded as “binds”.

B7: Hprt (dsDNA)
DNA 1: AGGGCGGGCCGAGGGGCGGAGCCTGGCCGGCAGCG
DNA 2: CGCTGCCGGCCAGGCTCCGCCCCTCGGCCCGCCCT
B7: the binding result with GST-FOXD3 [2] is on record as “no binding”.

B8: L1MdA (dsDNA)
DNA 1: GTACATAGGGAAGCAGGCTACCCGGGCCTGATCTG
DNA 2: CAGATCAGGCCCGGGTAGCCTGCTTCCCTATGTAC
Take B8: the binding result with GST-FOXD3 [2] was “no binding”.
